The text below walks through data of patent US20240384250A1, “FIBROBLAST GROWTH FACTOR 23 MODULATING COMPOUNDS” (THE UAB RESEARCH FOUNDATION, priority 2021, published 2024).

Test [1] has as its system phosphorylated ERK in HEK293T cells. Nature of the test: ERK phosphorylation in serum-starved HEK293 cells (Western blotting). It is filed as cell-based, human. As to conditions: FGF 1.1 nM for 10 minutes, absence of sKL. On the procedure: The sample (20 μl) was loaded onto Mini-PROTEAN TGX Precast Gel 4-20% for experiments with <9 samples (4568094, Bio-Rad) or Criterion TGX Precast Gel 4-20% (5678094, Bio-Rad) for experiments with >9 samples. Gels were run in 1× Tris/Glycine/SDS buffer (1610732, Bio-Rad) at 150 V and stopped when the sample dye reached the end of the gel. Gels were removed and electrotransferred via a semi-dry cassette (1703940, Bio-Rad) in I× Tris/Glycine buffer (1610734, Bio-Rad) with 20% methanol. Gels were transferred onto polyvinylidene diflouride membranes (IPVH00010, Millipore) at 20 V for 1 hour. Membranes were then blocked in 5% dried milk with 0.5% Tween 20 diluted in Tris-buffered saline (TBST; pH 7.5) for 1 hour and probed with antibodies against specific antigens at 1:1000 in TBST with 5% dried milk. Blots were washed 3× for 5 minutes in TBST and probed with HRP-coupled secondary antibodies against specific species at 1:10,000 in TBST with 5% dried milk. Membranes were imaged on the SRX-101A X-ray film developer (Konica Minolta).
To determine the cellular activity of paracrine FGFs, the activation/phosphorylation of ERK in HEK293 cells after treatment was studied. HEK293 cells were seeded in 6-well plates in DMEM (26140079, Gibco) supplemented with I× Pen/Strep (15140122, Gibco) and 10% FBS (26140079, Gibco) and grown for 48 hours. Upon reaching 80% confluence, cells were serum starved overnight in DMEM and 1× Pen/Strep without FBS. The medium was changed, and cells were treated with sKL at 2 μg/ml or vehicle (sKL elution buffer: 25 mM Tris ph 8.0, 500 mM NaCl) for 15 minutes. Cells were then treated with various FGFs at 1.1 nM for 10 minutes. Cells were lysed in 200 μl of RIPA with the addition of a protease inhibitor (11836153001, Roche) and phosphatase inhibitors (P5726 and P0044, Sigma-Aldrich) for 30 minutes. The mixture was then centrifuged at 20,000 g for 60 minutes to remove all cell debris. One hundred microliters of 1× Laemmli sample buffer (1610737, Bio-Rad) with 1.42 M 2-mercaptoethanol was added, and samples were boiled for 5 minutes. Twenty microliters of samples was loaded onto 12% SDS-PAGE gels and analyzed using Western blotting for total and phosphorylated ERK.

The target in another test is T1, FGF23 (Homo sapiens, UniProt Q9GZV9).
T1 construct: purchased R&D Systems 2604FG025/CF (human) or 2629FG025/CF (mouse)
T1 sequence (Q9GZV9 25-251): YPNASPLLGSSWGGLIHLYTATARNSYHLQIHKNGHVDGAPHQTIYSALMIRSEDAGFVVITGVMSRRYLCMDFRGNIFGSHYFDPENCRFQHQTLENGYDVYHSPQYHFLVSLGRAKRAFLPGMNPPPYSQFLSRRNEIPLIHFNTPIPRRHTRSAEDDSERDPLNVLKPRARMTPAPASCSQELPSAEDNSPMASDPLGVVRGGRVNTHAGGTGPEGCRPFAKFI
The experiment in a line: Plate-based binding assay, FGF23 coated, FLAG-sKL detected with anti-FLAG HRP. Conditions: 100 ng FGF23 coated. How it is done:
(§1) Proteins were coated on 96-well plates (MaxiSorp; 439454, Thermo Fisher Scientific), and proteins were added to wells in 100 μl of enzyme-linked immunosorbent assay (ELISA) coating buffer (E107, Bethyl Laboratories) with a lid placed overtop and incubated at 4° C. overnight. Plates were washed 5× with 350 μl of assay buffer (50 mM Tris [pH 7.4], 200 mM NaCl, 0.01% Tween 20) on a 50 TS microplate washer (BioTek). Plates were blocked for 1 hour in 200 μl of assay buffer with 0.5% BSA. Plates were washed as before, and proteins were incubated on plates in 100 μl of assay buffer with 0.5% BSA. Proteins or heparin was incubated in orders described in the respective figure legends. Assays using FLAG-tag-based detection were incubated with anti-FLAG coupled to HRP at 1:20,000, and assays using Fc detection were incubated with anti-human Fc coupled to HRP at 1:10,000. Plates were washed as above, and 100 μl of 3,3′,5,5′-tetramethylbenzidine (TMB) substrate (E102, Bethyl Laboratories) was added for 15 to 20 minutes until positive wells developed a dark blue color. Reactions were stopped with ELISA stop solution (E115, Bethyl Laboratories) and analyzed using the Synergy HI plate reader (BioTek) at 450 nm wavelength. […] As a control to remove background absorbance values, wells were coated with an equal amount of BSA to match the amount of protein coated in experimental wells and treated the same as experimental wells. To study the effects of sKL on the binding between paracrine FGFs and FGFRs, plates were run as above except coated with paracrine FGFs. Fc-FGFR1 was preincubated with sKL or vehicle for 60 minutes, and then the combination was added to wells and the assay was run as before.

The next test concerns the target T2, FGFR1c (Homo sapiens, UniProt P11362).
T2 construct: Fc-coupled FGFR ectodomains were immobilized on protein A/G beads; purchased R&D Systems 658FR050
T2 sequence (P11362 22-376 limits assumed): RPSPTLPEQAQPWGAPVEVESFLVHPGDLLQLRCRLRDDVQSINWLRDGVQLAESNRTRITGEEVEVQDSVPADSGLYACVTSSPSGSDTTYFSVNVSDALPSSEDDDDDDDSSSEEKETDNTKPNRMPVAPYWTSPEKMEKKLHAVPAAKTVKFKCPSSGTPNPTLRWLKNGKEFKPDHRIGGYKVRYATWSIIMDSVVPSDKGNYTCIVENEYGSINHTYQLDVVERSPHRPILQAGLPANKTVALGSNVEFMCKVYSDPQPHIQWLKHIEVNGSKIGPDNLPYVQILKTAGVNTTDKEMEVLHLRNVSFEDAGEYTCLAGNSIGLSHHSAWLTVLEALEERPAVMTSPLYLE
The experiment in a line: Plate-based binding assay, FGFR1c coated, FLAG-sKL detected with anti-FLAG HRP. Conditions: purified protein. How it is done:
as §1

B1: FGF8b: recombinant human FGF8b from R&D Systems (protein)
chain: QVTVQSSPNFTQHVREQSLVTDQLSRRLIRTYQLYSRTSGKHVQVLANKRINAMAEDGDPFAKLIVETDTFGSRVRVRGAETGLYICMNKKGKLIAKSNGKGKDCVFTEIVLENNYTALQNAKYEGWYMAFTRKGRPRKGSKTRQHQREVHFMKRLPRGHHTTEQSLRFEFLNYPPFTRSLRGSQRTWAPEPR
On to B1, for which the “ERK phosphorylation induced by FGF” value in test [1] was “induced ERK phosphorylation”.

B2: sKL-N694Q: sKL variant with glycosylation site Asn694 substituted by Gln (protein)
chain: EPGDGAQTWARFSRPPAPEAAGLFQGTFPDGFLWAVGSAAYQTEGGWQQHGKGASIWDTFTHHPLAPPGDSRNASLPLGAPSPLQPATGDVASDSYNNVFRDTEALRELGVTHYRFSISWARVLPNGSAGVPNREGLRYYRRLLERLRELGVQPVVTLYHWDLPQRLQDAYGGWANRALADHFRDYAELCFRHFGGQVKYWITIDNPYVVAWHGYATGRLAPGIRGSPRLGYLVAHNLLLAHAKVWHLYNTSFRPTQGGQVSIALSSHWINPRRMTDHSIKECQKSLDFVLGWFAKPVFIDGDYPESMKNNLSSILPDFTESEKKFIKGTADFFALCFGPTLSFQLLDPHMKFRQLESPNLRQLLSWIDLEFNHPQIFIVENGWFVSGTTKRDDAKYMYYLKKFIMETLKAIKLDGVDVIGYTAWSLMDGFEWHRGYSIRRGLFYVDFLSQDKMLLPKSSALFYQKLIEKNGFPPLPENQPLEGTFPCDFAWGVVDNYIQVDTTLSQFTDLNVYLWDVHHSKRLIKVDGVVTKKRKSYCVDFAAIQPQIALLQEMHVTHFRFSLDWALILPLGNQSQVNHTILQYYRCMASELVRVNITPVVALWQPMAPNQGLPRLLARQGAWENPYTALAFAEYARLCFQELGHHVKLWITMNEPYTRQMTYSAGHNLLKAHALAWHVYNEKFRHAQNGKISIALQADWIEPACPFSQKDKEVAERVLEFDIGWLAEPIFGSGDYPWVMRDWLNQRNNFLLPYFTEDEKKLIQGTFDFLALSHYTTILVDSEKEDPIKYNDYLEVQEMTDITWLNSPSQVAVVPWGLRKVLNWLKFKYGDLPMYIISNGIDDGLHAEDDQLRVYYMQNYINEALKAHILDGINLCGYFAYSFNDRTAPRFGLYRYAADQFEPKASMKHYRKIIDSNGFPGPETLERFCPEEFTVCTECSFFHTRKS
modifications: left off: small tags and cut ends
notes: sKL variant with glycosylation site Asn694 substituted by Gln
As to B2, in the test with FGF23, the “FGF23 binding of sKL variants in HEK293 cell media compared with wildtype sKL” value is “increased FGF23 binding”. Further, in the test with FGFR1c, the “binding affinity for FGFR1c compared with wildtype sKL” value is “does not affect”.

B3: FGF5: recombinant human FGF5 from R&D Systems (protein)
chain: EKRLAPKGQPGPAATDRNPRGSSSRQSSSSAMSSSSASSSPAASLGSQGSGLEQSSFQWSPSGRRTGSLYCRVGIGFHLQIYPDGKVNGSHEANMLSVLEIFAVSQGIVGIRGVFSNKFLAMSKKGKLHASAKFTDDCKFRERFQENSYNTYASAIHRTEKTGREWYVALNKRGKAKRGCSPRVKPQHISTHFLPRFKQSEQPELSFTVTVPEKKKPPSPIKPKIPLSAPRKNTNSVKYRLKFRFG
Regarding B3, the “ERK phosphorylation induced by FGF” value in test [1] is reported as “induced ERK phosphorylation”.
